Experimental data reported in US20250051458A1, “Methods for Treating Neurodegeneration Targeting IGF1/IGF1R” (The Schepens Eye Research Institute, Inc., priority 2021, published 2025).

Tests used:
retinal microglia = assay: Proteome profiler mouse cytokine array on supernatants of LPS-treated retinal microglial cultures; assay type: cell-based; settings: IGFBPL1 400 ng/ml added 6 hr after LPS 1 μg/ml; total 48 hours
Procedure: Retinal microglia isolation started from dissecting retinas out from CX3CR1/GFP mice. The single cell suspension was obtained followed by papain digestion (20 units; Worthington, Lk003150). Tap every 3-5 mins until completely digested and then add equal volume of inhibitor to neutralize the reaction. Then the supernatants were removed by centrifuge at 300 g for 8 mins. Resuspend retinal cell pellets from CX3CR1/GFP mice into cell staining buffer (BioLegend, 420201) with pacific blue anti-mouse CD11b primary antibody (Biolegend, 101224). […]
As described above, microglial cells were sorted from CX3CR1/GFP mice as described above. […] The array membranes were imaged with iBright CL1500 imaging system (ThermoFisher Scientific, USA) and the results were analyzed using ImageJ software.
To investigate if IGFBPL1 directly mediates microglial function, we studied gene profiling changes in isolated microglial cultures treated by IGFBPL1. Retinal microglia were purified from mice expressing green fluorescence protein (GFP) driven under a microglial specific promoter Cx3cr1 (Cx3cr1-Gfp) using fluorescence-activated cell sorting (FACS)^12. […] This effects of IGFBPL1 on suppressing microglial activation were verified by cytokine arrays, which measured 36 mouse pro-inflammatory cytokines, chemokines from supernatants of microglial cultures. […]

[1] = test system: Igf-1r conditional knock out on microglia mice; assay: Microbead-induced glaucoma in mice with Igf-1r specific knock out on microglia; assay type: in vivo, mouse
Procedure: Adult (10-12 weeks old) male and female C57BL/6J (B6) (The Jackson Laboratory, 000664), Cx3cr1^GFP (The Jackson Laboratory, 005582), DBA/2J mice (The Jackson Laboratory, 000671) Igf1r^(lax) inducible knockout mice (The Jackson Laboratory, 012251) as well as Cx3cr1^tm2.1(cre/ERT2) mice were obtained from the Jackson Laboratory. Igf1r^(lax) mice were crossed with Cx3cr1^tm2.1(cre/ERT2) mice to generated Igf-1r specific knock out on microglia after 3 consecutive days injection of 100 mg/kg tamoxifen to mice. IGFBPL1 deficiency mice at a C57BL/6J genetic background (Knockout Mouse Project Repository, University of California at Davis) were used in following experiments. Mice of both genders were randomized into control and experimental groups. All experimental procedures and use of animals were approved and monitored by the Institute's Animal Care Committee and conform to the standards of the National Institute of Health and the Association for Research in Vision and Ophthalmology.
Elevated IOP was induced unilaterally in adult mice (10-12 weeks old) as described previously^21. […] Antibiotic ointment will be applied topically on the cornea after the injection, and then leave the operated mice to recover on a warm pad and monitored every 15 minutes until awake and fully sternal. […]

B1: IGFBPL1: insulin-like growth factor binding protein like protein 1; recombinant protein (R&D system, 4130-BL) (protein)
chain: LGLRDAGRRHPECSPCQQDRCPAPSPCPAPWISARDECGCCARCLGAEGASCGGPVGSRCGPGLVCASRASGTAPEGTGLCVCAQRGAVCGSDGRSYSSICALRLRARHAPRAHHGHLHKARDGPCEFAPVVLMPPRDIHNVTGTQVFLSCEVKAVPTPVITWKKVKHSPEGTEGLEELPGDHVNIAVQVRGGPSDHETTSWILINPLRKEDEGVYHCHAANAIGEAQSHGTVTVLDLNRYKSLYSSVPGDLL
Reversal of LPS-induced inflammatory cytokines (cytokine array, 36 cytokines/chemokines) (retinal microglia): completely reverted the LPS-induced inflammatory cytokines to the control levels
pSTR amplitude and RGCs (neuroprotective effect) ([1]; IGFBPL1 at day 3, 10 and 17 post microbeads-induced glaucoma, IGF-1R knocked out on microglia): neuroprotective effects diminished
Contrast sensitivity (CS) and visual acuity (VA) ([1]; Igf-1r−/− mice with MB induced glaucoma): very limited protective capacity
